Source: US6328728A, “Composition and method for enhancing electrotransport agent delivery” (Alza Corporation, priority 1997, dated 2001)

Experiment: Hydrophobicity by hydrophobic interaction chromatography (HIC), phenyl Superose column (retention time, ta/tm)
Type: physicochemical
Settings: for HIC Retention Time / HIC Column Retention Time: 32° C.; for HIC Column Retention Time: pH 5.0, 4 mM piperazine-HCl
Procedure: The hydrophobicity of an agent (eg, an agent such as a polypeptide or protein in solution, as well as the relative increase or decrease thereof) is determined by passing the agent-containing solution through a chromatography column filled with a particular "hydrophobic interaction" bead material and measuring either (1) the time required for the agent to elute (ie, pass through) the column or (2) the volume of liquid (ie, the same liquid used in the agent-containing sample, but with the agent removed) required to be pumped through the column in order to elute the agent. For the purposes of the present invention, the hydrophobicity of an agent is defined in terms relative to the marker compound, N-acetyl tryptophanamide (sold by Sigma Chemical, St. Louis, Mo.), which has a somewhat moderate hydrophobicity. Hydrophobicity, as that term is used herein, is measured using a 5 mm diameter glass column having a length of 5 cm (ie, column volume of 1.0 mL) and packed with cross-linked agar beads having an average particle size of 13.5 μm. Examples of suitable hydrophobic bead materials include cross-linked agar gel beads (Superose 12) having hydrophobic ligands attached to the agar via chemically stable ether linkages ((Superose 12)--O--CH2 --CHOH--CH2 --O--R) such as alkyl-Superose wherein R is --CH2 --C(CH3)3 and phenyl-Superose wherein R is phenyl, both of which are sold in pre-packaged column form by Pharmacia Biotech, Inc. of Piscataway, N.J. Immediately downstream from the column is placed a flow cell which permits continuous UV absorbance measurements of the solution flowing out of the column. Suitable flow cells and UV absorbance detectors are sold by Perkin-Elmer Corp., Applied Biosystems, Foster City, Calif. Hydrophobicity measurements are conducted at 32° C. with the same buffer that is used in the electrotransport system which is used to deliver the agent (eg, transdermally) to the patient. The buffer strength used in the hydrophobicity measurements is 10 mM ionic strength. The term "certain hydrophobicity" as used herein, means that the time required for the agent to elute from the column, relative to the time required for N-acetyl tryptophanamide to elute, is as follows:
ta /tm >0.7, and preferably ta /tm >3
ta is the time at which the peak UV absorbance value is recorded for the beneficial agent in the flow cell, less the time required to initially fill the column with the agent-containing solution (ie, dead volume retention time); and
tm is the time at which the peak UV absorbance value is recorded for the N-acetyl tryptophanamide marker in the flow cell, less the time required to initially fill the column with the marker-containing solution (ie, dead volume retention time).
The above described measurement of agent hydrophobicity is substantially independent of column size and flow rate through the column.
One method of measuring the hydrophobicity of an agent such as a polypeptide or protein is by hydrophobic interaction chromatography (HIC). The principles and conditions associated with HIC are fully described in Protein Purification: Principles, High Resolution Methods, and Applications, Janson and Ryden, Eds., pp. 207-226 (1989), the pertinent portions of which are incorporated herein by reference. This method requires passing a composition through a hydrophobic interaction column and measuring the volume of solvent required for its complete elution. The hydrophobic sites on the agent are generally attracted to hydrophobic groups, such as aryl groups, affixed to beads placed within the column. A preferred HIC column material is phenyl-superose (Pharmacia, Sweden), a cross-linked polysaccharide which has been covalently modified to have pendant hydrophobic aryl groups. These pendant groups are similar to the hydrophobic or lipophilic species in the skin layers. Thus, this hydrophobic interaction column approximates, and is a good in vitro model for, an animal's skin layer as a barrier to transport of a polypeptide or protein. […]

[1] = pH 3.5, 10 mM sodium chloroacetate, TWEEN 20 0
[2] = pH 3.5, 10 mM sodium chloroacetate, TWEEN 20 1.5 mg/mL
[3] = pH 3.5, 10 mM sodium chloroacetate, TWEEN 20 2.66 mM
[4] = pH 3.5, 10 mM sodium chloroacetate, TWEEN 20 5.33 mM
[5] = pH 3.5, 10 mM sodium chloroacetate, TWEEN 20 6.66 mM
[6] = pH 3.5, 10 mM sodium chloroacetate, TWEEN 20 8.88 mM
[7] = pH 9.0, 10 mM sodium borate, TWEEN 20 0
[8] = pH 9.0, 10 mM sodium borate, TWEEN 20 1.5 mg/mL
[9] = pH 9.0, 10 mM sodium borate, TWEEN 20 2.66 mM
[10] = pH 9.0, 10 mM sodium borate, TWEEN 20 6.0 mg/mL
[11] = pH 9.0, 10 mM sodium borate, TWEEN 20 8.88 mM

Insulinotropin: the protein insulinotropin
HIC Retention Time [1]: 57.6 min | HIC Retention Time [2]: 25.6 min | HIC Retention Time [3]: 11.5 min | HIC Retention Time [4]: 6.1 min | HIC Retention Time [5]: 6.0 min | HIC Retention Time [6]: 4.4 min | HIC Retention Time, fractional change (% δ) [1]: 0 | HIC Retention Time, fractional change (% δ) [2]: 0.60 | HIC Retention Time, fractional change (% δ) [3]: 0.87 | HIC Retention Time, fractional change (% δ) [4]: 0.97 | HIC Retention Time, fractional change (% δ) [5]: 0.97 | HIC Retention Time, fractional change (% δ) [6]: 1.00 | HIC Retention Time [7]: 10.1 min | HIC Retention Time [8]: 9.4 min | HIC Retention Time [9]: 6.4 min | HIC Retention Time [10]: 4.8 min | HIC Retention Time [11]: 3.8 min | HIC Retention Time, fractional change (% δ) [7]: 0 | HIC Retention Time, fractional change (% δ) [8]: 0.11 | HIC Retention Time, fractional change (% δ) [9]: 0.59 | HIC Retention Time, fractional change (% δ) [10]: 0.84 | HIC Retention Time, fractional change (% δ) [11]: 1.00

Salmon Calcitonin [reference compound]
HIC Column Retention Time (dodecyl sulfobetaine 0, calcitonin 0.076 mM): 9.4 min | HIC Column Retention Time (dodecyl sulfobetaine 0.83 mM, calcitonin 0.076 mM): 12.4 min | HIC Column Retention Time (dodecyl sulfobetaine 3.23 mM, calcitonin 0.074 mM): 87.1 min | HIC Column Retention Time (dodecyl sulfobetaine 6.25 mM, calcitonin 0.072 mM): 64.1 min | HIC Column Retention Time (dodecyl sulfobetaine 9.77 mM, calcitonin 0.069 mM): 45.1 min | HIC Column Retention Time (dodecyl sulfobetaine 18.4 mM, calcitonin 0.062 mM): 28.8 min | HIC Column Retention Time (dodecyl sulfobetaine 26.4 mM, calcitonin 0.056 mM): 24.4 min
